The values below come from patent US20210070807A1 (MOREHOUSE SCHOOL OF MEDICINE, published 2021).

The target in this assay is mortalin (UniProt P38646 47-679). The assay can be described thus: cell-based or functional assay.
Sequence of mortalin (P38646 47-679 limits assumed): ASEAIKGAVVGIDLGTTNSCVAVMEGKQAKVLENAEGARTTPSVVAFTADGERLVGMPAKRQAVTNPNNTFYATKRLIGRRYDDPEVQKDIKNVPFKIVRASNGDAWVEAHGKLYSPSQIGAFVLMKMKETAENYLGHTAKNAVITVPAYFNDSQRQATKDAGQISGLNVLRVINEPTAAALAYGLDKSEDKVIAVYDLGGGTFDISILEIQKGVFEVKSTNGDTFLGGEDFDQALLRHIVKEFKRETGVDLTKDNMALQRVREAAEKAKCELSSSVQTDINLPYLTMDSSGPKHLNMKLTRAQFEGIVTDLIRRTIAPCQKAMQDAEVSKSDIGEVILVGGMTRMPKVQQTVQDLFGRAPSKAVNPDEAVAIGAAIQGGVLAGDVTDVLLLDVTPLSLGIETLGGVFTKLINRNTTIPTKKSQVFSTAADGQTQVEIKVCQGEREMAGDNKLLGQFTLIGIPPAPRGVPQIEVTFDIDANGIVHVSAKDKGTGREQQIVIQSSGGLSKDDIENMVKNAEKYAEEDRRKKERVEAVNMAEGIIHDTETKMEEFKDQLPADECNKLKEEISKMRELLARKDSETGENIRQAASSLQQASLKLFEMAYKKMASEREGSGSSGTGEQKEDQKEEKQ

Turning to VGFPVAAVGFPVGRKKRRQRRRPPQ [SMRwt-CPP peptide], the “IC50 of proliferation, MTT assay, K562 cells, 24 hours” value stood at 907 nM/mL; the “IC50 of proliferation, MTT assay, MCF-7 cells, 24 hours” value turned out to be 180 nM/mL; the “IC50 of proliferation, MTT assay, MDA-MB-231 cells, 24 hours” value came out at 476 nM/mL.
